Where two headings read alike, the source gives them in different places.
Assays:
[1] = test system: Human Peripheral Blood Mononuclear Cells (PBMC); test: Immunosuppression of selected peptides: Con A stimulated lymphocyte proliferation (EdU incorporation); format: cell-based; settings: Con A (5 ug/mL); for inhibition profile of proliferation at various peptide concentrations: dose-dependence (FIG. 11); for inhibition of lymphocyte proliferation: peptide concentration of 50 uM, 72 hrs, relative to Con A stimulated cells without peptide (FIG. 10)
Excerpt: The peptides are dimerized via the C-terminal Cysteines and added at the concentrations indicated below.

BAB/No Ag = settings: R, i.m.; cited from earlier work
HIV-1 [2] = settings: M, cited from earlier work
IFN-gamma = test: Cytokine modulation: IFN-gamma in supernatant of ConA stimulated PBMC (ELISA); settings: 50 uM peptide, Con A stimulation of PBMC, 72 hrs, ELISA (FIG. 14)
Experimental: (§1) Donor PBMC's were maintained at 10^5 cells/well in a 96-well. […] After 72 hrs, lymphocyte proliferation was measured and supernatants analysed by ELISA for levels of the proinflammatory cytokines, IFN-gamma (FIG. 14 grey bar) and TNF-alpha (FIG. 14 black bar).

TNF-alpha = test: Cytokine modulation: TNF-alpha in supernatant of ConA stimulated PBMC (ELISA); settings: 50 uM peptide, Con A stimulation of PBMC, 72 hrs, ELISA (FIG. 14)
Experimental: as §1

Human PBMC = test: Mixed leukocyte reaction: PBMC stimulated by Jurkat cells expressing HIV envelope variants; settings: PBMC with Mitomycin C arrested Jurkat stimulator cells expressing the envelope, 1:1, 96 hrs (FIG. 12)
Experimental: The experiment utilizes Human PBMC prepared fresh from healthy donors. These are stimulated by adding a human T cell line (Jurkat) at a 1:1 ratio. The jurkat cells have been irreversible arrested by incubating them with 50 ug/mL Mitomycin C for 1 hour prior to PBMC stimulation. Cultures are maintained and lymphocyte proliferation is measured 96 hrs later by EdU incorporation and Click-iT labelling with Oregon Green (Invitrogen, Denmark) as recommended by the manufacturer. The degree of activated lymphocytes is proportional to the flourescence detection.

β-gal = settings: M, i.m.; cited from earlier work
Influenza = settings: M, i.m.; cited from earlier work
HIV-1 [3] = settings: C, i.m.; cited from earlier work
[4] = HSV-3; M, i.m./i.d.; cited from earlier work
HSV-2 = settings: M, i.m.; cited from earlier work

In the case of LQARVLAVERYLKDQQLLRIWGC [HIV G19R], the “inhibition profile of proliferation at various peptide concentrations” value [1] is reported as “less steep” and the “inhibition of lymphocyte proliferation” value [1] is reported as 15%.

In the case of MCP-1, the “Effects: Ab/IgG” value (BAB/No Ag) is given as “↑^e” and the “Effects: Protection” value (BAB/No Ag) is given as “↑”.

In the case of RANTES, the “Effects: CTL” value (HIV-1 [2]; i.m.) is listed as “↑”, the “Effects: Ab/IgG” value (BAB/No Ag) is listed as “↑^e” and the “Effects: Protection” value (BAB/No Ag) is listed as “=”.

In the case of LQARVLAVERYLKDQQLLGIWGC [CS-3], the IFN-γ secretion (IFN-gamma) is reported as “significantly reduces”, the TNF-α secretion (TNF-alpha) is reported as “significantly reduces” and the “inhibition of lymphocyte proliferation” value [1] is reported as 82%.

For “LQNRRGLDLLFLKEGGLC (HIV) [CKS-17, reference compound]”, the “inhibition of lymphocyte proliferation” value [1] was 93%.

With “LQARILAVETLIQNQQLLNLWGC [HIV M/O chimera]” the “lymphocyte proliferation (activation of PBMC)” value (Human PBMC) was “decrease is relieved”, the “inhibition profile of proliferation at various peptide concentrations” value [1] was “less steep” and the “inhibition of lymphocyte proliferation” value [1] was 22%.

B1: MIP-1β (protein, UniProt P14097 24-92, looked up)
C-C motif chemokine 4: APMGSDPPTSCCFSYTSRQLHRSFVMDYYETSSLCSKPAVVFLTKRGRQICANPSEPWVTEYMSDLELN
For B1, the “Effects: Ab/IgG” value (BAB/No Ag) is given as “↑^e” and the “Effects: Protection” value (BAB/No Ag) is given as “↓”.

B2: TCA-3 (protein, UniProt P10146 24-92, looked up)
C-C motif chemokine 1: KSMLTVSNSCCLNTLKKELPLKFIQCYRKMGSSCPDPPAVVFRLNKGRESCASTNKTWVQNHLKKVNPC
For B2, the “Effects: Ab/IgG” value (HIV-1 [2]; i.m.) is given as “↓”, the “Effects: CTL” value (HIV-1 [2]; i.m.) is given as “↑” and the “Effects: DTH” value (HIV-1 [2]; i.m.) is given as “↑”. For the same molecule, the “Effects: IgG1/IgG2a” value (HIV-1 [2]; i.m.) was “↓”.

B3: CD40L (protein, UniProt P27548 112-260, looked up)
CD40 ligand, soluble form: MQRGDEDPQIAAHVVSEANSNAASVLQWAKKGYYTMKSNLVMLENGKQLTVKREGLYYVYTQVTFCSNREPSSQRPFIVGLWLKPSSGSERILLKAANTHSSSQLCEQQSVHLGGVFELQAGASVFVNVTEASQVIHRVGFSSFGLLKL
For B3, the “Effects: Ab/IgG” value (β-gal) is given as “↑”, the “Effects: CTL” value (β-gal) is given as “↑” and the “Effects: IgG1/IgG2a” value (β-gal) is given as “↓”. The “Effects: Protection” value (β-gal) was “↑”.

B4: CD86 (protein, UniProt P42082 24-309, looked up)
T-lymphocyte activation …: VSVETQAYFNGTAYLPCPFTKAQNISLSELVVFWQDQQKLVLYEHYLGTEKLDSVNAKYLGRTSFDRNNWTLRLHNVQIKDMGSYDCFIQKKPPTGSIILQQTLTELSVIANFSEPEIKLAQNVTGNSGINLTCTSKQGHPKPKKMYFLITNSTNEYGDNMQISQDNVTELFSISNSLSLSFPDGVWHMTVVCVLETESMKISSKPLNFTQEFPSPQTYWKEITASVTVALLLVMLLIIVCHKKPNQPSRPSNTASKLERDSNADRETINLKELEPQIASAKPNAE
In the case of B4, the “Effects: CTL” value (Influenza) is listed as “↑”, the “Effects: Ab/IgG” value (HIV-1 [2]; i.m.) is listed as “=” and the “Effects: CTL” value (HIV-1 [2]; i.m.) is listed as “↑”. The “Effects: DTH” value (HIV-1 [2]; i.m.) was “↑”, the “Effects: IgG1/IgG2a” value (HIV-1 [2]; i.m.) was “=” and the “Effects: CTL” value (HIV-1 [3]) was “↑”. For the same molecule, the “Effects: Ab/IgG” value [4] was “=”, the “Effects: DTH” value [4] was “=” and the “Effects: IgG1/IgG2a” value [4] was “=”. The “Effects: Protection” value [4] was “=”.

B5: CD80 (protein, UniProt Q00609 38-306, looked up)
T-lymphocyte activation …: VDEQLSKSVKDKVLLPCRYNSPHEDESEDRIYWQKHDKVVLSVIAGKLKVWPEYKNRTLYDNTTYSLIILGLVLSDRGTYSCVVQKKERGTYEVKHLALVKLSIKADFSTPNITESGNPSADTKRITCFASGGFPKPRFSWLENGRELPGINTTISQDPESELYTISSQLDFNTTRNHTIKCLIKYGDAHVSEDFTWEKPPEDPPDSKNTLVLFGAGFGAVITVVVIVVIIKCFCKHRSCFRRNEASRETNNSLTFGPEEALAEQTVFL
In the case of B5, the “Effects: CTL” value (Influenza) is given as “=”, the “Effects: Ab/IgG” value (HIV-1 [2]; i.m.) is given as “=” and the “Effects: CTL” value (HIV-1 [2]; i.m.) is given as “=”. The “Effects: DTH” value (HIV-1 [2]; i.m.) was “=”, the “Effects: Ab/IgG” value (HSV-2) was “=” and the “Effects: DTH” value (HSV-2) was “= and ↑”. For the same molecule, the “Effects: IgG1/IgG2a” value (HSV-2) was “=” and the “Effects: Protection” value (HSV-2) was “= and ↑”.

B6: MIP-1α (protein, UniProt P10855 24-92, looked up)
C-C motif chemokine 3: APYGADTPTACCFSYSRKIPRQFIVDYFETSSLCSQPGVIFLTKRNRQICADSKETWVQEYITDLELNA
For B6, the “Effects: Ab/IgG” value (HIV-1 [2]; i.m./i.n.) is given as “↑”, the “Effects: CTL” value (HIV-1 [2]; i.m./i.n.) is given as “↑” and the “Effects: DTH” value (HIV-1 [2]; i.m./i.n.) is given as “↑”. The “Effects: IgG1/IgG2a” value (HIV-1 [2]; i.m./i.n.) was “↓”, the “Effects: CTL” value (HIV-1 [2]; i.m.) was “↑” and the “Effects: IgG1/IgG2a” value (HIV-1 [2]; i.m.) was “↑”. For the same molecule, the “Effects: Ab/IgG” value (BAB/No Ag) was “↑^e” and the “Effects: Protection” value (BAB/No Ag) was “↑”.

From patent publication US20110305749A1, “HIV-1 Envelope Polypeptides for HIV Vaccine” (priority 2008, published 2011)
